{"source": "patent US10073082B2", "about": "“Proteasome inhibition assay and methods of use” (UNIVERSITY HEALTH NETWORK, priority 2013, dated 2018)", "assay_type_in_all_cases": "cell-based, human", "key": {"[1]": {"tested_on": "P-ERK (P-Thr202/P-Tyr204) in peripheral blood monocytes", "assay": "ERK phosphorylation in LPS activated monocytes from pretreated whole blood", "procedure": "(§1) Whole blood samples from normal human donors were collected. 100 μL aliquots of the whole blood were inserted into the bottom of 12×75 mm tubes. In order to reduce the potential for contamination of the sample with unfixed cells, blood was removed from the side of the tubes with a cotton swab. 1-2 μL of a proteasome effector was added to a first portion of the tubes and these tubes were incubated for 2 hours at 37° C. in a water bath. In this example, the proteasome effector was Bortezomib or MG-132, both proteasome inhibitors. Following pretreatment with the proteasome effector, 2 μL of […] stock solution (100 ng) of an IκB degradation agonist was added to the tubes and the tubes were incubated from 1 minute to 60 minutes at 37° C. in a water bath. In this example, the agonist was lipopolysaccharide (LPS). A second portion of the tubes were treated with the IκB degradation agonist and no proteasome effector. 2 μL of an IκB degradation agonist was added to these tubes and the tubes were incubated from 1 minute to 60 minutes as described above. For control tubes, 2 μL of phosphate buffered saline (PBS) was added to the tubes and the tubes were incubated as described above.\n(§2) Following incubation, the cells were fixed and permeabilized with a PerFix-P® kit (Beckman Coulter, Inc., Brea. Calif.) according to the manufacturer's instructions. The fixed and permeabilized cells were then washed with 2 mL of Wash Buffer (PBS (w/o Ca++/Mg++) with 2% fetal bovine serum (FBS), sterile filtered (0.22 μm filter)) in the tubes and centrifuged at 500×g for 4 minutes. The cell pellet was resuspended in 2 mL of cold (4° C.) Wash Buffer, centrifuged at 500×g for 4 minutes, and the supernatant was aspirated.\nFollowing the above wash steps, the fixed and permeabilized cells were resuspended in 100 μL of cold Wash Buffer comprising antibodies to specific intracellular antigens (e.g., signaling targets including P-ERK, P-Akt, P-p38, P-SAPK, P-S6, and antibodies to IκB). The antibodies were labeled with different fluorochromes (e.g. fluorophores) to facilitate their-individual measurement of the intracellular antigens. […] For example, anti-CD14 antibodies were included to specifically label monocytes, anti-CD3 antibodies or anti-CD19 antibodies were included to specifically label T or B-cells respectively, and/or anti-CD38/CD138 antibodies were included to specifically label plasma cells. The cells were incubated with the antibodies for 30 minutes at room temperature and then the cells were washed in 2 mL of cold Wash Buffer and centrifuged as described above. The supernatant was aspirated and the cell pellet was resuspended in 350 μL of Resuspension Buffer (PerFix-P® kit) and analyzed on a flow cytometer (GALLIOS™) using a protocol with defined population gates and series of dual parameter histograms. A CD45-KO vs. SS dual parameter histogram was collected and a gate around the leukocyte population based on the CD45+ fluorescence and SS characteristics was drawn to exclude debris (CD45 negative events). A minimum of 2,500 CD14+ events were collected. […] The collected flow cytometric data was analyzed using KALUZA™ software.\n(§3) Phosphorylation of signaling pathways activated by LPS, including ERK, Akt (activated by PI3 Kinase), and the ribosomal S6 protein (a marker of protein synthesis) were also monitored together with the degradation of IκB. […] The degradation of IκB in cells pretreated with MG-132 or GDC-0941 was monitored by flow cytometry as described in Example 1. […]"}, "[2]": {"tested_on": "IκB in peripheral blood monocytes", "assay": "Flow cytometry assay, whole blood pretreated with effector: LPS induced degradation of IκB in monocytes", "settings": "whole blood pretreated with compound, then LPS", "procedure": "as §1, with “2 μL of an IκB degradation agonist was added to these tubes and the tubes were incubated from 1 minute to 60 minutes as described above. For control tubes, 2 μL of phosphate buffered saline (PBS) was added to the tubes and the tubes were incubated as described above.” left out\n(§4) Following the above wash steps, the fixed and permeabilized cells were resuspended in 100 μL of cold Wash Buffer comprising antibodies to specific intracellular antigens (e.g., signaling targets including P-ERK, P-Akt, P-p38, P-SAPK, P-S6, and antibodies to IκB). […] The supernatant was aspirated and the cell pellet was resuspended in 350 μL of Resuspension Buffer (PerFix-P® kit) and analyzed on a flow cytometer (GALLIOS™) using a protocol with defined population gates and series of dual parameter histograms. A CD45-KO vs. SS dual parameter histogram was collected and a gate around the leukocyte population based on the CD45+ fluorescence and SS characteristics was drawn to exclude debris (CD45 negative events). […] The collected flow cytometric data was analyzed using KALUZA™ software.\nas §3"}, "[3]": {"tested_on": "P-Akt (P-Ser473) in peripheral blood monocytes", "assay": "Akt phosphorylation in LPS activated monocytes from pretreated whole blood", "procedure": "(§5) Whole blood samples from normal human donors were collected. 100 μL aliquots of the whole blood were inserted into the bottom of 12×75 mm tubes. In order to reduce the potential for contamination of the sample with unfixed cells, blood was removed from the side of the tubes with a cotton swab. 1-2 μL of a proteasome effector was added to a first portion of the tubes and these tubes were incubated for 2 hours at 37° C. in a water bath. In this example, the proteasome effector was Bortezomib or MG-132, both proteasome inhibitors. […]\nas §4, with “software. […]” for “software.”"}, "[4]": {"tested_on": "P-S6 (P-Ser235/P-Ser236) in peripheral blood monocytes", "assay": "S6 phosphorylation in LPS activated monocytes from pretreated whole blood", "procedure": "as §5\nas §4, with “software. […]” for “software.”"}, "[5]": {"tested_on": "peripheral blood monocytes", "assay": "IκB degradation agonists in whole blood: IκB degradation and signaling pathway activation in monocytes", "settings": "for Pathways Activated: Target Cell Population: Monocytes", "procedure": "as §1, §2\n(§6) Following the above wash steps, the fixed and permeabilized cells were resuspended in 100 μL of cold Wash Buffer comprising antibodies to specific intracellular antigens (e.g., signaling targets including P-ERK, P-Akt, P-p38, P-SAPK, P-S6, and antibodies to IκB). The antibodies were labeled with different fluorochromes (e.g. fluorophores) to facilitate their-individual measurement of the intracellular antigens. In order to target specific cell populations in the assay, antibodies capable of differentiating cell populations within the blood sample were also included in some of the tubes. For example, anti-CD14 antibodies were included to specifically label monocytes, anti-CD3 antibodies or anti-CD19 antibodies were included to specifically label T or B-cells respectively, and/or anti-CD38/CD138 antibodies were included to specifically label plasma cells. The cells were incubated with the antibodies for 30 minutes at room temperature and then the cells were washed in 2 mL of cold Wash Buffer and centrifuged as described above. The supernatant was aspirated and the cell pellet was resuspended in 350 μL of Resuspension Buffer (PerFix-P® kit) and analyzed on a flow cytometer (GALLIOS™) using a protocol with defined population gates and series of dual parameter histograms. A CD45-KO vs. SS dual parameter histogram was collected and a gate around the leukocyte population based on the CD45+ fluorescence and SS characteristics was drawn to exclude debris (CD45 negative events). A minimum of 2,500 CD14+ events were collected. A stop count region was set from the CD14-PC7 vs. SS histogram gated on monocytes. Dual parameter histograms gated on the appropriate populations were created to measure the populations of interest. The collected flow cytometric data was analyzed using KALUZA™ software.\n(§7) Phosphorylation of signaling pathways activated by TNF-α, including ERK, Akt, and the ribosomal S6 protein, was monitored together with the degradation of IκB in peripheral blood WBCs. Whole blood samples were treated, activated, and processed as described in Example 1 and the degradation of IκB in peripheral blood cells was monitored by flow cytometry as described in Example 1. The IκB degradation agonist used in this example was TNF-α. […]"}, "[6]": {"tested_on": "peripheral blood lymphocytes", "assay": "IκB degradation agonists in whole blood: IκB degradation and signaling pathway activation in lymphocytes", "settings": "for Pathways Activated: Target Cell Population: Lymphocytes (subpopulation)", "procedure": "as §1, §2, §6, §7"}, "[7]": {"settings": "pathway: Tpl-2 > ERK/MAP kinase"}}}
{"molecule": "N#CC(=C(/N)Sc1ccccc1N)/C(C#N)=C(\\N)Sc1ccccc1N", "note": "[U0126]", "values": [{"measurement": "ERK activation", "setting": "[1]; LPS stimulated monocytes, single late ERK peak 8-10 minutes, FIG. 19", "value": "inhibited"}]}
{"molecule": "CS(=O)(=O)N1CCN(Cc2cc3nc(-c4cccc5[nH]ncc45)nc(N4CCOCC4)c3s2)CC1", "note": "[GDC-0941]", "values": [{"measurement": "effect on LPS induced degradation of IκB in monocytes", "setting": "[2]", "value": "no effect"}, {"measurement": "\"early\" (first) ERK phosphorylation peak", "setting": "[1]; LPS activated monocytes, 2-4 minutes", "value": "inhibited"}, {"measurement": "\"late\" (second) ERK activation peak", "setting": "[1]; LPS activated monocytes, about 10 minutes", "value": "unchanged"}, {"measurement": "Akt activation", "setting": "[3]", "value": "inhibited"}, {"measurement": "activation of ribosomal S6 protein", "setting": "[4]", "value": "minimal impact"}]}
{"molecule": "CD40L: IκB degradation agonist (protein, UniProt P29965 113-261, looked up) CD40 ligand, soluble form: MQKGDQNPQIAAHVISEASSKTTSVLQWAEKGYYTMSNNLVTLENGKQLTVKRQGLYYIYAQVTFCSNREASSQAPFIASLCLKSPGRFERILLRAANTHSSAKPCGQQSIHLGGVFELQPGASVFVNVTDPSQVSHGTGFTSFGLLKL", "values": [{"measurement": "Pathways Activated", "setting": "[5]; pathway: IκB > NFκB", "value": "IκB > NFκB"}, {"measurement": "Pathways Activated", "setting": "[5]; pathway: P38 MAP kinase", "value": "P38 MAP kinase"}, {"measurement": "Pathways Activated", "setting": "[5]; [7]", "value": "Tpl-2 > ERK/MAP kinase"}, {"measurement": "Akt activation in monocytes", "setting": "[5]; agonist alone", "value": "not activated"}, {"measurement": "ERK activation in monocytes", "setting": "[5]; agonist alone", "value": "low level of ERK activation"}, {"measurement": "decrease of the level of IκB", "setting": "[5]; monocytes, between 6 and 15 minutes post treatment", "value": "approximately 60%"}, {"measurement": "Pathways Activated", "setting": "[6]; pathway: IκB > NFκB (Tpl-2)", "value": "IκB > NFκB (Tpl-2)"}, {"measurement": "Pathways Activated", "setting": "[6]; pathway: PI3 kinase > Akt", "value": "PI3 kinase > Akt"}, {"measurement": "Pathways Activated", "setting": "[6]; [7]", "value": "Tpl-2 > ERK/MAP kinase"}, {"measurement": "Akt activation in lymphocytes", "setting": "[6]; agonist alone", "value": "not activated"}, {"measurement": "ERK activation in lymphocytes", "setting": "[6]; agonist alone", "value": "Neither ERK nor S6 were activated"}, {"measurement": "S6 activation in lymphocytes", "setting": "[6]; agonist alone", "value": "Neither ERK nor S6 were activated"}, {"measurement": "decrease of the level of IκB", "setting": "[6]; lymphocytes, between 40 and 45 minutes post treatment", "value": "approximately 40%"}]}
